From paper PMC5762396 (Archives of biochemistry and biophysics, 2017)

B1: Tmod2_(1-346) (domain or fragment)
chain: MALPFQKGLEKYKNIDEDELLGKLSEEELKQLENVLDDLDPESATLPAGFRQKDQTQKAATGPFDREHLLMYLEKEALEQKDREDFVPFTGEKKGRVFIPKEKPVETRKEEKVTLDPELEEALASASDTELYDLAAVLGVHNLLNNPKFDEETTNGEGRKGPVRNVVKGEKAKPVFEEPPNPTNVEASLQQMKANDPSLQEVNLNNIKNIPIPTLKEFAKSLETNTHVKKFSLAATRSNDPVALAFAEMLKVNKTLKSLNVESNFITGTGILALVEALRENDTLTEIKIDNQRQQLGTAVEMEIAQMLEENSRILKFGYQFTKQGPRTRVAAAITKNNDLVRKKRV
B2: Tmod2[L73D] (natural protein)
chain: MALPFQKGLEKYKNIDEDELLGKLSEEELKQLENVLDDLDPESATLPAGFRQKDQTQKAATGPFDREHLLMYDEKEALEQKDREDFVPFTGEKKGRVFIPKEKPVETRKEEKVTLDPELEEALASASDTELYDLAAVLGVHNLLNNPKFDEETTNGEGRKGPVRNVVKGEKAKPVFEEPPNPTNVEASLQQMKANDPSLQEVNLNNIKNIPIPTLKEFAKSLETNTHVKKFSLAATRSNDPVALAFAEMLKVNKTLKSLNVESNFITGTGILALVEALRENDTLTEIKIDNQRQQLGTAVEMEIAQMLEENSRILKFGYQFTKQGPRTRVAAAITKNNDLVRKKRVEGDRR

Target: G-actin (WT α-skeletal muscle actin from chicken) (chicken, UniProt P68139 1-377)
Assay: atomic force microscopy

Row | Binder | peak value of unbinding force
1 | B1 | 64 ± 3.6 pN
2 | B2 | 105 ± 2.2 pN
